US20070166308A1 (Amgen, published 2007)

Key:
[1] = target: T1, MAdCAM-IgG1 Fc fusion protein (human); test: adhesion of calcein-loaded α4β7+ JY cells to coated MAdCAM-IgG1 Fc, blocked by antibody
T1 construct: Expressed in CHO-DHFR cells; also called MAdCAM-IgFc; soluble MAdCAM (in the sandwich ELISA)
Description: (§1) The cells were washed twice with RPMI 1640 media (Gibco) containing 2 mM L-glutamine (Gibco) by centrifugation (240 g), resuspending the final cell pellet at 2×10⁶ cells/mL in RPMI 1640 for Calcein AM loading. Calcein AM (Molecular Probes #C-3099) was added to the cells as a 1:200 dilution in DMSO (ca. final concentration 5 μM) and the cells protected from light during the course of the incubation (37° C. for 30 min). During this cell incubation step the antibodies to be tested, were diluted as follows: for single dose testing, the antibodies were made up to 3 μg/mL (1 μg/mL final) in 0.1 mg/mL BSA (Sigma#A3059) in PBS; for full IC₅₀ curves, the antibodies were diluted in 0.1 mg/mL BSA/PBS, with 3 μg/mL (1 μg/mL final) being the top concentration, then doubling dilutions (1:2 ratio) across the plate. The final well of the row was used for determining total binding, so 0.1 mg/ml BSA in PBS was used.
After blocking, the plate contents were flicked out and 50 μL of antibodies/controls were added to each well and the plate incubated at 37° C. for 20 min. During this time, Calcein-loaded JY cells were washed once with RPMI 1640 media containing 10% fetal bovine serum and once with 1 mg/mL BSA/PBS by centrifugation, resuspending the final cell pellet to 1×10⁶/mL in 1 mg/mL BSA/PBS. 100 μL of cells were added to each well of the U bottomed plate, the plate sealed, briefly centrifuged (1000 rpm for 2 min) and the plate then incubated at 37° C. for 45 min. At the end of this time, the plates were washed with a Skatron plate washer and fluorescence measured using a Wallac Victor² 1420 Multilabel Reader (excitation λ 485 nm, emission λ 535 nm count from top, 8 mm from bottom of plate, for 0.1 sec with normal emission aperture). For each antibody concentration, percent adhesion was expressed as a percentage of maximal fluorescence response in the absence of any antibody minus fluorescence associated with non-specific binding. […]

[2] = target: T1, MAdCAM-IgG1 Fc fusion protein; test: MAdCAM-IgG1 Fc fusion / JY cell adhesion assay, mean IC50
Description: as §1
After blocking, the plate contents were flicked out and 50 μL of antibodies/controls were added to each well and the plate incubated at 37° C. for 20 min. During this time, Calcein-loaded JY cells were washed once with RPMI 1640 media containing 10% fetal bovine serum and once with 1 mg/mL BSA/PBS by centrifugation, resuspending the final cell pellet to 1×10⁶/mL in 1 mg/mL BSA/PBS. 100 μL of cells were added to each well of the U bottomed plate, the plate sealed, briefly centrifuged (1000 rpm for 2 min) and the plate then incubated at 37° C. for 45 min. At the end of this time, the plates were washed with a Skatron plate washer and fluorescence measured using a Wallac Victor² 1420 Multilabel Reader (excitation λ 485 nm, emission λ 535 nm count from top, 8 mm from bottom of plate, for 0.1 sec with normal emission aperture). For each antibody concentration, percent adhesion was expressed as a percentage of maximal fluorescence response in the absence of any antibody minus fluorescence associated with non-specific binding. The IC₅₀ value is defined as the anti-MAdCAM antibody concentration at which the adhesion response is decreased to 50% of the response in the absence of anti-MAdCAM antibody.

[3] = target: T2, VCAM (Panvera) (UniProt P19320 25-698, limits assumed); test: cell-based or functional assay
T2 sequence (looked up): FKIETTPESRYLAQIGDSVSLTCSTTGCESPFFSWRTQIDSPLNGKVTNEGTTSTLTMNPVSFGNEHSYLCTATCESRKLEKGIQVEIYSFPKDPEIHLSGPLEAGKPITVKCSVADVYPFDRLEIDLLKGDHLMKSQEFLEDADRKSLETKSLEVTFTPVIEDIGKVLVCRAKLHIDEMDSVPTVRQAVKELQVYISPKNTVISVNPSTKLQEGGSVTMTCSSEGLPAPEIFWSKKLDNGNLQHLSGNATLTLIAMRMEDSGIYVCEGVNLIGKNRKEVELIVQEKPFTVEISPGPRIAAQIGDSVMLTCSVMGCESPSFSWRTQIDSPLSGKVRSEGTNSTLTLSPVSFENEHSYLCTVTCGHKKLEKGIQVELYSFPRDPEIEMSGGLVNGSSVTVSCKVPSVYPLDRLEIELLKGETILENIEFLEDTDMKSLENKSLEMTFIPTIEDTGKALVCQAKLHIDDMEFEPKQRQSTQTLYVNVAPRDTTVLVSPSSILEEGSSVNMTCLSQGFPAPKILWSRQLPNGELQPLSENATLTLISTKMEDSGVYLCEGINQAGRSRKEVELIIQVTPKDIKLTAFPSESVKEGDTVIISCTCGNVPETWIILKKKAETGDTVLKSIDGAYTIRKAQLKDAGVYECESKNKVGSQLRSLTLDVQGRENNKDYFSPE

[4] = target: Fibronectin cell binding fragment (110 Kd, Europa Bioproducts Ltd, Cat. No. UBF4215-18) (UniProt P02751-1 722-1635); test: cell-based or functional assay
Sequence of Fibronectin cell binding fragment (110 Kd, Europa Bioproducts Ltd, Cat. No. UBF4215-18) (P02751 other isoform, or with tags, fused parts or gaps limits assumed): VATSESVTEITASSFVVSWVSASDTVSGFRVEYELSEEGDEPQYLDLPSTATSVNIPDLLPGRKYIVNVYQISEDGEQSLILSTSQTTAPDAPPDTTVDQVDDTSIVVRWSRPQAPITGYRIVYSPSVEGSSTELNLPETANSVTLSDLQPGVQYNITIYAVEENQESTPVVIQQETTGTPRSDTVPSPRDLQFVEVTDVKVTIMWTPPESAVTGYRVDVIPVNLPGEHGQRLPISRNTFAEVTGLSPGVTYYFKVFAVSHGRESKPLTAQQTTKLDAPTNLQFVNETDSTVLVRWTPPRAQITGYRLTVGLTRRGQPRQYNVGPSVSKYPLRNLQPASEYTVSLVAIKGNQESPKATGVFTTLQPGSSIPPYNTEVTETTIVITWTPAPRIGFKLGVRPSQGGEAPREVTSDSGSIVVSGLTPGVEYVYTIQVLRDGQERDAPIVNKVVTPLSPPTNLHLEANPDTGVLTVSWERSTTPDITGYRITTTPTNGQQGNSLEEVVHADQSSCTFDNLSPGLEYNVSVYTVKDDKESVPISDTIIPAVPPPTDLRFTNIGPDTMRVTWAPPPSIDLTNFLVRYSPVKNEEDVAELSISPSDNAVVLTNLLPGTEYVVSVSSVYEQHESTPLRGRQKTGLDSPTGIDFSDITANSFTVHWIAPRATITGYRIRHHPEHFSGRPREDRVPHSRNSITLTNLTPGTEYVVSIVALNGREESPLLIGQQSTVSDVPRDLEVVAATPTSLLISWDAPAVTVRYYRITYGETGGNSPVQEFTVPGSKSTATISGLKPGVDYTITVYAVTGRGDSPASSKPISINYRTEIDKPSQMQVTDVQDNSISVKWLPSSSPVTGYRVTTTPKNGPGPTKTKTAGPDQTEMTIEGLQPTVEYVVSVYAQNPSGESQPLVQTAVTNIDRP

T1 sequence (chain, as listed by the source limits assumed): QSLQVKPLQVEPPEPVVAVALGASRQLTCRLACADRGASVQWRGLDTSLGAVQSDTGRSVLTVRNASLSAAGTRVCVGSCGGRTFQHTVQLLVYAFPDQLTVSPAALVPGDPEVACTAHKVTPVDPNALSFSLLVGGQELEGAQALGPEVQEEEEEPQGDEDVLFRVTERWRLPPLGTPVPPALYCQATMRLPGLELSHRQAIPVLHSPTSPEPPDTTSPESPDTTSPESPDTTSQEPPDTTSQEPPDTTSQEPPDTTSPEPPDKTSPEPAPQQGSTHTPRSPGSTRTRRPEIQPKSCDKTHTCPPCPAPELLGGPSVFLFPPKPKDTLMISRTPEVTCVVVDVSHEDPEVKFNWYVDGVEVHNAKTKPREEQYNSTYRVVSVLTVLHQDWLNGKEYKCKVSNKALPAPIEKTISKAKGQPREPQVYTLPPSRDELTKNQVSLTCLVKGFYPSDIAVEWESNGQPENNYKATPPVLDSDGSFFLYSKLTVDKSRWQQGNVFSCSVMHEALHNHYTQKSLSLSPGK

B1: anti-MAdCAM monoclonal antibody 7.26.4 (antibody, human IgG2, kappa, V domains shown)
VH: QVQLVQSGAEVKKPGASVKVSCEASGYTFTSYGIDWVRQAPGQGLEWMGWISVYSGNTNYAQKLQGRVTMSTDTSTSTAYMELRSLRSDDTAVYYCAREGSSSSGDYYYGMDVWGQGTTVTVSS
VL: DIVMTQTPLSLSVTPGQPASISCKSNQSLLYSDGKTYLFWYLQKPGQPPQLLIYEVSNRFSGVPDRFSGSGSGTDFTLKISRVEAEDVGVYYCMQSIQLPWTFGQGTKVEIKR
notes: fully human IgG2 kappa from hybridoma; signal peptide left out; kappa chain glycosylation confirmed
[1]
  IC50: < 0.1 µg/mL
[2]
  IC50: 0.021 µg/mL
[3]
  inhibition of adhesion of α4β1+/α5β1+ Jurkat T-cells to coated VCAM: > 100 fold
[4]
  inhibition of adhesion of α4β1+/α5β1+ Jurkat T-cells to coated Fibronectin cell binding fragment: > 100 fold

B2: anti-MAdCAM monoclonal antibody 9.8.2 (antibody, human IgG4, kappa, V domains shown)
VH: QVQLVESGGGVVQPGRSLRLSCAASGFTFSSYGMHWVRQAPGKGLEWVAVIWYDGSNEYYADSVKGRFTISRDNSKNTLYLQMNSLRAEDTAVYYCARGAYHFAYWGQGTLVTVSS
VL: DIQMTQSPSSLSASVGDRVTITCQASQDISNYLNWYQQKPGKAPKLLIYDASNLETGVPSRFSGSGSGTDFTFTISSLQPEDIATYSCQHSDNLSITFGQGTRLEIKR
notes: fully human IgG4 kappa from hybridoma; signal peptide left out; kappa chain stained positive for glycosylation
[1]
  IC50: < 0.1 µg/mL
[3]
  inhibition of adhesion of α4β1+/α5β1+ Jurkat T-cells to coated VCAM: > 100 fold
[4]
  inhibition of adhesion of α4β1+/α5β1+ Jurkat T-cells to coated Fibronectin cell binding fragment: > 100 fold
